In experiment [1] the target is full-length, untagged 18.5-kDa murine MBP (A1-R168) (mouse). In words: ITC; Fyn-SH3 (0.7-1.3 mM) injected into the cell with MBP (45-80 uM); 20 mM HEPES, 100 mM NaCl, pH 7.4; 22 °C; 3 independent measurements; one-set of sites model; apparent values, first 3-4 points excluded (aggregation).
Experiment [2] shares this target. Description: ITC; Fyn-SH3 (0.7-1.3 mM) injected into the cell with MBP (45-80 uM); 20 mM HEPES, 100 mM NaCl, pH 7.4; 37 °C; 2 independent measurements; one-set of sites model; apparent values, first 3-4 points excluded (aggregation).
In experiment [3] the target is xα2(S38–S107) peptide of murine 18.5 kDa myelin basic protein (mouse). Description: NMR titration; unlabelled Fyn–SH3 titrated into 0.8 mM 15N-labelled xα2-peptide; 2D 15N-HSQC; 20 mM Hepes, 100 mM NaCl, 10% 2H2O, pH 7.4; molar ratios 1:0 to 1:1.2; fractional saturation fit of Y65 and T95 shifts; KD values are only estimates.

“And” between values parts separate entries of the source, which are not always exact repeats. Equal values may be shown once.

Chain of full-length, untagged 18.5-kDa murine MBP (A1-R168) (mouse) (P02686 other isoform, or with tags, fused parts or gaps): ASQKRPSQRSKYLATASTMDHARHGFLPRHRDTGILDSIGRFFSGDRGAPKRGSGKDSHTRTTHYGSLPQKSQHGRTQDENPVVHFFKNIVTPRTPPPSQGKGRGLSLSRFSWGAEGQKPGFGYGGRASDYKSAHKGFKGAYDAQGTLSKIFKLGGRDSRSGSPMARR

Consider “Fyn-SH3 domain (Gallus gallus Fyn, residues 85-142) (from UniProt Q05876 85-142) (domain or fragment)”, for which, in experiment [1], the Kd stood at 5 µM and the stoichiometry N stood at 0.6. Moreover, in experiment [2], the Kd came out at 5 µM and the stoichiometry N is 1.2.

For “Fyn–SH3 domain (Gallus gallus Fyn tyrosine kinase, residues 85–142) (from UniProt Q05876 85-142) (domain or fragment)”, in experiment [3], the Kd is 7.6 µM and 4 µM.
